# Source: the supplement of paper PMC10126150
# ± gives the standard deviation of the averaged measurements.
# Tested on: ATP
# Assay: switch fluorescence ratio, 500 uM ATP over buffer (Cy3 cluster intensity, sum of 5 cycles each) (fold (ratio)); higher = stronger signal-on switching upon ATP binding; sequences stand for … in TCGTCGGCAGCGTCAGATGTGTATAAGAGACAGTTTTTTTTTTTTTTTTTTTTTTTTT…TC
# Settings: aptamer strand: ATP DNA aptamer (quencher-CACCTGGGGGAGTATTGCGGAGGAAGG + anchor), 100 nM annealed; ATP concentration: 500 uM
# Outline: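 Values give the fluorescence ratio for each switch-domain sequence, averaged from per-cluster ratios of summed target-cycle to summed buffer-cycle Cy3 intensity. The Cy3-labelled switching-strand clusters sat on a modified Illumina MiSeq flow-cell, were annealed to 100 nM quencher-labelled ATP aptamer, and were imaged in selection buffer, then after 15 min with 500 uM ATP at 22 °C. Five cycles ran with NaOH stripping and re-annealing between them, and clusters outside 100-1000 RFU were excluded.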
# 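Note: ATP exposure 15 min at 22 °C before imaging.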
row,Sequence,switch fluorescence ratio
1,TCAGATCTGT,1 ± 0.024
2,TCAGATGGTG,1.02 ± 0.014
3,TCAGCAGGTT,2.85 ± 2.2
4,TCAGCATTTT,1.01 ± 0.046
5,TCAGGAGGGG,0.997 ± 0.02
6,TCAGGGGGAC,1.78 ± 1.3
7,TCAGGGGGGC,1.28 ± 0.62
8,TCAGGGTTAT,1.02 ± 0.0034
9,TCAGGGTTGT,1.02 ± 0.031
10,TCAGGGTTTC,0.984 ± 0.013
11,TCAGGTAATT,1.03 ± 0.031
12,TCAGGTGCGG,1.16 ± 0.061
13,TCAGGTTAGG,1.008 ± 0.0065
14,TCAGTAATGA,1.0075 ± 7.1e-05
15,TCAGTATAGC,1.018 ± 0.004
16,TCAGTCAACC,1.1 ± 0.017
17,TCAGTCAGTT,0.991 ± 0.048
18,TCAGTCATTA,0.989 ± 0.016
19,TCAGTCTGCC,1.03 ± 0.052
20,TCAGTCTTTT,0.998 ± 0.016
21,TCAGTGAACT,1 ± 0.039
22,TCAGTTGGGA,0.9697 ± 0.0062
23,TCAGTTTTTT,0.999 ± 0.035
24,TCATAAACTT,1.09 ± 0.058
25,TCATACGGTA,1.179 ± 0.005

row,Sequence,switch fluorescence ratio
1,TCATACTTTT,1.01 ± 0.026
2,TCATAGACGG,0.987 ± 0.021
3,TCATAGTATG,0.982 ± 0.04
4,TCATATAATA,1.01 ± 0.018
5,TCATCATTTT,0.996 ± 0.0019
6,TCATCCGTTT,1.13 ± 0.15
7,TCATCGTGCC,0.99 ± 0.032
8,TCATGAGCCA,1.04 ± 0.025
9,TCATGCAACG,1.06 ± 0.06
10,TCATGCAGAT,1.02 ± 0.056
11,TCATGGCACG,1.02 ± 0.019
12,TCATGGGCGC,1.01 ± 0.014
13,TCATGGGGCG,0.993 ± 0.012
14,TCATGTACGT,1.06 ± 0.028
15,TCATGTTATG,0.971 ± 0.065
16,TCATGTTGCT,1.01 ± 0.025
17,TCATGTTGGA,0.977 ± 0.02
18,TCATTAAGTT,1.08 ± 0.094
19,TCATTAGCCT,1.08 ± 0.019
20,TCATTAGCTT,0.991 ± 0.012
21,TCATTCTTTA,1.01 ± 0.019
22,TCATTGATTT,0.978 ± 0.022
23,TCATTGGACT,0.98 ± 0.023
24,TCATTGTAAC,1.06 ± 0.023
25,TCATTGTTTT,1.01 ± 0.019

row,Sequence,switch fluorescence ratio
1,TCATTTATAT,0.98 ± 0.047
2,TCATTTCAGC,1.03 ± 0.011
3,TCATTTCAGG,1.01 ± 0.012
4,TCATTTGGAT,1 ± 0.023
5,TCATTTGGGG,0.975 ± 0.024
6,TCATTTTAGT,0.99 ± 0.026
7,TCATTTTCGG,0.986 ± 0.025
8,TCATTTTGAA,1.01 ± 0.0012
9,TCCAAAATTT,0.976 ± 0.013
10,TCCAACGGGT,1.03 ± 0.059
11,TCCAAGACGA,1.34 ± 0.23
12,TCCAAGAGGG,1.01 ± 0.031
13,TCCAAGGCTT,1.038 ± 0.0014
14,TCCAATTTGA,0.998 ± 0.012
15,TCCACCGA,1.04 ± 0.017
16,TCCACGGTCT,1.0273 ± 0.00046
17,TCCAGATCAT,0.993 ± 0.018
18,TCCAGATGGA,0.977 ± 0.037
19,TCCAGATTCT,0.9828 ± 0.0086
20,TCCAGGAGGG,1.025 ± 0.0075
21,TCCAGGAGTG,1.15 ± 0.019
22,TCCAGGGAAT,1.04 ± 0.029
23,TCCAGGGGCA,1.67 ± 0.1
24,TCCAGTAATA,1.17 ± 0.19
25,TCCAGTAGTT,0.982 ± 0.024

row,Sequence,switch fluorescence ratio
1,TCCATAGGGG,1.53 ± 0.88
2,TCCATCGCTT,1.6 ± 0.79
3,TCCATCTGGG,1.01 ± 0.032
4,TCCATCTTTT,0.999 ± 0.014
5,TCCATGACCC,1.01 ± 0.015
6,TCCATGACGC,1.099 ± 0.0088
7,TCCATGATTG,0.973 ± 0.037
8,TCCATTCATA,1.01 ± 0.023
9,TCCATTTGGA,1.02 ± 0.052
10,TCCCAACGGG,1.011 ± 0.0036
11,TCCCCAATTT,1.13 ± 0.12
12,TCCCCAGCAC,3.1 ± 2.7
13,TCCCCCTGTT,1.01 ± 0.013
14,TCCCCGGGCA,0.995 ± 0.04
15,TCCCCGGTCA,1.09 ± 0.15
16,TCCCCTCGGC,1.08 ± 0.046
17,TCCCCTTTTT,1.04 ± 0.015
18,TCCCGATTTC,1.07 ± 0.024
19,TCCCGCTTGT,1.17 ± 0.028
20,TCCCGTTTGA,1.01 ± 0.016
21,TCCCTCAGGG,1.46 ± 0.078
22,TCCCTGTTTT,0.991 ± 0.016
23,TCCGAAGGGT,0.991 ± 0.045
24,TCCGAAGGTA,1.07 ± 0.025
25,TCCGACGGTT,3.31 ± 0.46
